Measured values taken from patent US20150140001A1 (Scripps Research, published 2015).
Where a chain is given by its changes, count along the chain named.

T1: recombinant mouse clec14a CTLD Fc fusion protein (mCTLD-Fc) (mouse; human, UniProt Q8VCP9 31-172)
T1 construct: also called mouse CTLD-Fc; not shown: hinge and CH2-CH3 domain of human IgG1, encoded 3' of the cloning site of the modified pCEP4 vector
T1 sequence: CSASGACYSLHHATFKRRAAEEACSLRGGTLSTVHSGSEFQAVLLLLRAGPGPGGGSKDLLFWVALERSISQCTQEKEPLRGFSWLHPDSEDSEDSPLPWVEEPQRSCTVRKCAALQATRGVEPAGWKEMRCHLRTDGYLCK

T2: fusion protein comprising an amino acid fragment from 1st amino acid to 42nd amino acid in hCTLD (human, UniProt Q86T13 31-72)
T2 construct: also called N-terminal fragment of hCTLD-Fc (1-42); not shown: Fc
T2 chain: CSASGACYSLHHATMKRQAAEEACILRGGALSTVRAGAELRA

T3: recombinant human clec14a CTLD Fc fusion protein (hCTLD-Fc) (human, UniProt Q86T13 31-172)
T3 construct: also called human CTLD-Fc; wtCTLD-Fc; not shown: hinge and CH2-CH3 domain of human IgG1, encoded 3' of the cloning site of the modified pCEP4 vector
T3 sequence: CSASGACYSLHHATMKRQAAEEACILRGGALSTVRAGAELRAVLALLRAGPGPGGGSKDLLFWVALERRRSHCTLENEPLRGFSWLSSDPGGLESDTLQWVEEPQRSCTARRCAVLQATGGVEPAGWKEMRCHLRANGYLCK

B1: clec14a-CTLD IgG clone 1 (antibody, V domains shown)
VH: EVQLLESGGGLVQPGGSLRLSCAASGFTFSGYDMSWVRQAPGKGLEWVSGIYPDGGNTYYADSVKGRFTISRDNSKNTLYLQMNSLRAEDTAVYYCARGATWWVLGPFDYWGQGTLVTVSS
VL: QSVLTQPPSASGTPGQRVTISCTGSSSNIGNNSVTWYQQLPGTAPKLLIYADSHRPSGVPDRFSGSKSGTSASLAISGLRSEDEADYYCGAWDDSLSGYVFGGGTKLTVL
notes: scFv converted to IgG; Lambda light chain, detected with anti-human lambda antibody
B2: scFv clone 1 (phage-displayed) (scFv, V domains shown)
VH: B1 VH
VL: B1 VL
B3: scFv clone 3 (phage-displayed) (scFv, V domains shown)
VH: EVQLLESGGGLVQPGGSLRLSCAASGFTFSDYYMSWVRQAPGKGLEWVSLISYDGGSTYYADSVKGRFTISRDNSKNTLYLQMNSLRAEDTAVYYCARSNDWFDYWGQGTLVTVSS
VL: B1 VL with T23S, N31S, S33N, T35Y, A51Y, H54Q, G98A
B4: clec14a-CTLD IgG clone 2 (antibody, V domains shown)
VH: EVQLLESGGGLVQPGGSLRLSCAASGFTFSSYDMSWVRQAPGKGLEWVSVISPDSSSTYYADSVKGRFTISRDNSKNTLHLQMNSLRAEDTAVYYCARHTGWQSRPHTYYDYGMDVWGQGTLVTVSS
VL: B1 VL with T23S, S33A, A51S, S53N, A91T, D94A
notes: Lambda light chain
B5: clec14a-CTLD IgG clone 3 (antibody, V domains shown)
VH: B3 VH
VL: B1 VL with T23S, N31S, S33N, T35Y, A51Y, H54Q, G98A
notes: Lambda light chain
B6: scFv clone 2 (phage-displayed) (scFv, V domains shown)
VH: B4 VH
VL: B1 VL with T23S, S33A, A51S, S53N, A91T, D94A

Assays:
[1] = target: T1, recombinant mouse clec14a CTLD Fc …; assay: ELISA, coated mCTLD-Fc (25 nM), 67 nM IgG
Experimental: (§1) 25 nM recombinant hCTLD-Fc, mCTLD-Fc, or Fc fragment of IgG1 in PBS was added to the 96-wells of a microtiter plate. After incubation overnight at 37° C., plates were washed three times with PBS containing 0.05% (v/v) Tween 20 (PBST), and incubated with 3% (w/v) BSA in PBST for 1 hr at 37° C. Plates were then incubated with 67 nM clec14a-CTLD IgG in PBST containing 3% (w/v) BSA for 3 hr at 37° C. Plates were washed twice with PBST and incubated with horseradish […] (HRP)-conjugated anti-human lambda light chain antibody (Bethyl Laboratories, Montgomery, Tex., USA) diluted 1:1000) in PBST containing 3% (w/v) BSA, for 1 hr at 37° C.

[2] = target: T2, fusion protein comprising an amino acid …; assay: epitope mapping ELISA, coated fragment-Fc 10 µg/ml, IgG 10 µg/ml
Experimental: Each of 10 μg/ml hCTLD-Fc, Fc, or N-terminal or C-terminal fragments of hCTLD-Fc in PBS was added to 96-well plates. Plates were incubated overnight at 37° C., washed three times with PBS containing 0.05% (v/v) Tween 20 (PBST), and incubated with 3% (w/v) BSA in PBST for 1 hr at 37° C. Plates were incubated with 10 μg/ml clec14a-CTLD IgG in PBST containing 3% (w/v) BSA for 2 hr at 37° C. Following two times washings with PBST, horseradish […] (HRP)-conjugated anti-human lambda light chain antibody (1:1000; Bethyl Laboratories, TX, USA) in PBST containing 3% (w/v) BSA was incubated for 1 hr at 37° C.
For fine mapping of epitope, specificity of clec14a-CTLD IgGs to Clec14awtCTLD and the fragments of hCTLD-Fc (FIG. 10a) were tested by ELISA.

[3] = target: T1, recombinant mouse clec14a CTLD Fc …; assay: phage enzyme immunoassay (phage ELISA) on mCTLD-Fc
Experimental: (§2) A human synthetic scFv antibody library was precleared of Fc binders and screened by alternative biopanning with recombinant hCTLD-Fc or mCTLD-Fc. b-d. Ninety-six phage clones (1-96) displaying scFv were randomly selected and the supernatants were analyzed by phage ELISA. Reactivity of the selected scFv clones to human and mouse CTLDs was assayed by measuring absorbance at 450 nm. Arrows indicate scFv clones reactive to hCTLD-Fc (▪, black) and mCTLD-Fc (▪, grey), and not reactive to Fc (□). BSA ( ) served as a background control.
(§3) Three rounds of biopanning were carried out with immunotubes (Immuno™ tube maxisorp, Nunc, Rochester, N.Y., USA) or magnetic beads (Dynabeads M-270 epoxy, Invitrogen) coated with 4 μg recombinant human (hCTLD-Fc) or mouse (mCTLD-Fc) fusion protein to select clones with cross-species reactivity, as described previously (Barbas C F. Phage display: a laboratory manual. Cold Spring Harbor, N.Y.: Cold Spring Harbor Laboratory Press; 2001; Vestweber D. Lymphocyte trafficking through blood and lymphatic vessels: more than just selectins, chemokines and integrins. European Journal of Immunology. 2003; 33(5):1361-4). Ninety-six phage clones were randomly selected from colonies grown on output plates and tested for reactivity to human and mouse CTLDs by phage enzyme immunoassay. DNA of the final scFv clones was sequenced and classified as four scFv clones identified having different complementarity determining region sequences.

[4] = target: T3, recombinant human clec14a CTLD Fc …; assay: phage enzyme immunoassay (phage ELISA) on hCTLD-Fc
Experimental: as §2
as §3, with “DNA of the final scFv clones was sequenced and classified as four scFv clones identified having different complementarity determining region sequences.” left out

[5] = target: T3, recombinant human clec14a CTLD Fc …; assay: ELISA, coated hCTLD-Fc (25 nM), 67 nM IgG
Experimental: as §1

Binder	binding result [1]	binding result [2]	binding result [3]	also measured
B1	binds	binds		
B2			binds	
B3			binds	binding result [4]: binds
B4	binds	binds		
B5	binds			binding result [5]: binds
B6			binds	
